Numbering of substitutions follows the chain as printed. One block for each binder: values may come before it.
Target: human FLT3 on transfected CHO cells (human) (UniProt P36888)
Experiment: FACS, scFv on CHO-human FLT3 cells pre-incubated with FLT3 ligand (competitor)

B1: FL-39 (scFv)
scFv: QVTLKESGPTLVKPTETLTLTCTLSGFSLNNARMGVSWIRQPPGKCLEWLAHIFSNDEKSYSTSLKNRLTISKDSSKTQVVLTMTNVDPVDTATYYCARIVGYGSGWYGFFDYWGQGTLVTVSSGGGGSGGGGSGGGGSDIQMTQSPSSLSASVGDRVTITCRASQGIRNDLGWYQQKPGKAPKRLIYAASTLQSGVPSRFSGSGSGTEFTLTISSLQPEDFATYYCLQHNSYPLTFGCGTKVEIK
median [+ligand]/median [w/o ligand]*100: > 75%

B4: FL-36 (scFv)
scFv: QVTLKESGPTLVKPTETLTLTCTFSGFSLRYARMGVSWIRQPPGKALEWLAHIFSNDEKSYSTSLKSRLTISKDTSKSQVVLTLTNMDPVDTATYFCARMPEYSSGWSGAFDIWGQGTMVTVSSGGGGSGGGGSGGGGSDIQMTQSPSSLSASVGDRVTITCRASQDIRNDLAWYQQKPGKAPKRLIYAASSLQSGVPSRFSGSGSGTEFTLTISSLQPEDFATYYCLQHNSYPLTFGGGTKLEIK
median [+ligand]/median [w/o ligand]*100: > 75%

B5: FL-38 (scFv)
scFv: B4 scFv with T10V, F24V, L29F, Y31N, M119L, D167G, A173G
median [+ligand]/median [w/o ligand]*100: > 75%

B6: FL-37 (scFv)
scFv: B4 scFv with T10V, F24V, Y31N, A32I, R33K, R169S, D171Y, Y233F
median [+ligand]/median [w/o ligand]*100: > 75%

B8: FL-35 (scFv)
scFv: QVTLKESGPALVKPTETLTLTCTVSGFSLNNARMGVSWIRQPPGKALEWLAHIFSNDEKSYSTSLKNRLTISKDSSKTQVVLTMTNVDPVDTATYYCARIVGYGTGWYGFFDYWGQGTQVTVSSGGGGSGGGGSGGGGSDIQMTQSPSSLSASVGDRVTITCRASQDIRDDLVWYQQKPGKAPKRLIYGTSTLQSGVPSRFSGSGSGTEFTLTISSLQPEDFATYYCLQHHSYPLTFGGGTKLEIK
median [+ligand]/median [w/o ligand]*100: > 75%

Continued, values first:

median [+ligand]/median [w/o ligand]*100: > 75%
B2: FL-41 (scFv)
scFv: QVTLKESGPVLVKPTQTLTLTCTFSGFSLSNARMGVSWIRQPPGKCLEWLAHIFSNDEKSFSTSLKNRLTISKDTSKSQVVLTMTNMDPVDTATYYCARMVGYGSGWYAYFDYWGQGTQVTVSSGGGGSGGGGSGGGGSDIQMTQSPSSLSASVGDRVTITCRASQSISSYLNWYQQKPGKAPKLLIYAASSLQSGVPSRFSGSGSGTDFTLTISSLQPEDFATYYCLQHNSYPLTFGCGTKVEIK

median [+ligand]/median [w/o ligand]*100: > 75%
B3: FL-40 (scFv)
scFv: QVTLKESGPTLVKPTETLTLTCTVSGFSLSNARMGVSWIRQPPGKCLEWLANIFSNDEKSYSTSLKSRLTISKGTSKSQVVLTMTNVNPVDTGTYYCARIVGYGSGWYGYFDYWGQGTLVTVSSGGGGSGGGGSGGGGSDIQMTQSPSSLSASVGDRVTITCRASQDIRNDLGWYQQKPGKAPKRLIYATSIRQSGVPSRFTGSGSGTEFTLTISGLQPEDFATYFCLQHNSFPLTFGCGTKVEIK

median [+ligand]/median [w/o ligand]*100: > 75%
B7: FL-42 (scFv)
scFv: QVTLKESGPALVKPTETLTLTCTLSGFSLNNARMAVSWIRQPPGKCLEWLAHIFSNDEKSYSTSLKSRLTISKDTSKSQVVLTMTNMDPEDTATYYCARIVGYGTGWYGFFDYWGQGILVTVSSGGGGSGGGGSGGGGSDIQMTQSPSSLSASVGDRVTITCRASQGIRNDLAWYQQKPGKAPKRLIYAASSLQSGVPSRFSGSGSGTEFTLTISSLQPEDFATYYCLQHNSYPLTFGCGTKVEIK

Reference: patent US20230272113A1
